Where no end group is shown, it is not given here.
B1: Phage-3904 (peptide)
peptide: GYHLCIPEWMCSGL
notes: tested as crude clonal phage supernatant
B2: Phage-3901 (peptide)
peptide: YVMMCVPQWMCTAK
notes: as for B1
B3: Phage-3910 (peptide)
peptide: VIPLCRPSWMCAAY
notes: as for B1
B4: Phage-3907 (peptide)
peptide: SLERCEPPWMCFGF
notes: as for B1
B5: Phage-3903 (peptide)
peptide: LGPMCRPNWMCVGL
notes: as for B1
B6: Phage-3898 (peptide)
peptide: ESQYCVPRWMCDGF
notes: as for B1
B7: Peptide-267 (peptide)
peptide: FTNYCVPSWMCTGF
notes: From the Peptide-180 optimisation phage library
B8: Peptide-277 (peptide)
peptide: VVIKCKPEWMCSGF
notes: as for B7
B9: Phage-1353 (peptide)
peptide: LCKPGVPYKWPTCL
notes: Clonal phage of the Peptide-92 library, tested as crude supernatant; not shown: fused to the pIII filament of the bacteriophage
B10: Phage-3906 (peptide)
peptide: SDALCRPHWMCAGF
notes: as for B1
B11: Phage-3909 (peptide)
peptide: VMAVCQPEWMCSGM
notes: as for B1
B12: Phage-3908 (peptide)
peptide: TERMCSPSWMCDGF
notes: as for B1
B13: Phage-3900 (peptide)
peptide: GNDYCVPAWMCAGF
notes: as for B1
B14: Phage-3899 (peptide)
peptide: FERVCVPAWMCAGF
notes: as for B1
B15: Phage-3902 (peptide)
peptide: GHMYCSPLWMCEGF
notes: as for B1
B16: Phage-3905 (peptide)
peptide: ADVLCRPHWMCAGF
notes: as for B1

How the values were obtained:
Anti-PSMA Fab [1] = target: T1, Anti-PSMA Fab; assay: clonal phage ELISA; biotinylated anti-PSMA Fab on neutravidin plate; anti-M13 HRP detection; no PSMA added
T1 construct: Biotinylated and captured on neutravidin plates in the phage ELISA; also called 006 PSMA Fab

Anti-PSMA Fab [2] = target: T1, Anti-PSMA Fab; assay: clonal phage ELISA; biotinylated anti-PSMA Fab on neutravidin plate; anti-M13 HRP detection; competitor: PSMA antigen pre-added
PSMA Fab (006 PSMA Fab) [3] = target: T2, PSMA Fab (006 PSMA Fab); assay: phage ELISA; PSMA Fab on plate pre-incubated with PSMA antigen as competitor, anti-M13 HRP detection;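 note: crude clonal phage supernatants added to Fab-coated wells still holding PSMA antigen in blocking buffer, with bound phage as read-out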
T2 construct: also called Anti-PSMA Fab; anti-PSMA Fab

PSMA Fab (006 PSMA Fab) [4] = target: T2, PSMA Fab (006 PSMA Fab); assay: phage ELISA; biotinylated PSMA Fab on neutravidin plate, clonal phage supernatant, anti-M13 HRP detection;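 note: wells preincubated with PSMA antigen in blocking buffer or with blocking buffer only before clonal phage were added for a short incubation, then bound phage detected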
PSMA Fab [5] = target: T3, PSMA Fab; assay: clonal phage ELISA; biotinylated PSMA Fab on neutravidin plate, blocking buffer alone; anti-M13 HRP detection;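 note: crude clonal phage supernatants added without washing to wells pretreated with blocking buffer with or without PSMA antigen, short incubation, then washed before detecting bound phage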
T3 construct: also called Anti-PSMA Fab; 006 PSMA Fab

PSMA Fab [6] = target: T3, PSMA Fab; assay: clonal phage ELISA; biotinylated PSMA Fab on neutravidin plate, wells first incubated with PSMA antigen as competitor; anti-M13 HRP detection
PSMA Fab [7] = target: T4, PSMA Fab; assay: BLI (Octet); PSMA Fab on sensor-loaded biotinylated peptide, 1:1 model
T4 construct: also called 006 PSMA Fab; anti-PSMA Fab

[8] = target: T5, Anti-CD28 Fab (SEQ ID NOs: 696, 697); assay: phage binding ELISA on captured anti-CD28 Fab; wells pre-incubated with CD28 antigen as competitor
T5 construct: In the phage ELISA the Fab was biotinylated and captured on neutravidin coated plates

Ab-15 [9] = assay: BLI (Octet): biotinylated peptide on sensor, Ab-15 titrated, 1:1 model
Ab-15 [10] = assay: binding ELISA: biotinylated peptide on neutravidin plate, Ab-15 titrated
Ab-15 [11] = assay: BLI (Octet): sensor loaded with 200 nM biotinylated peptide, 100 nM Ab-15;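 note: binding association and dissociation tracked in real time, fitted to a 1:1 binding model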
Ab-15 [12] = assay: competition ELISA: peptide titrated against 1 nM Ab-15; competitor plate-bound CD28

Binder	Phage binding ELISA signal, Anti-PSMA Fab (Anti-PSMA Fab [1])	Phage binding ELISA signal, Anti-PSMA Fab with PSMA antigen (Anti-PSMA Fab [2])	Phage binding ELISA signal, Anti-PSMA Fab in presence of PSMA antigen (PSMA Fab (006 PSMA Fab) [3])	Phage binding ELISA signal, Anti-PSMA Fab (PSMA Fab (006 PSMA Fab) [4])	also measured
AGYACVPSWMCEGF [Phage-3626]	1.55	0.105	–	–	–
DWVMCKPEWMCAGF [Phage-3625]	1.55	0.0618	–	–	–
B1	–	–	0.0923	1.06	–
B2	–	–	0.069	1.06	–
HDYACVPKWMCEGL [Phage-3621]	1.57	0.0818	–	–	–
B3	–	–	0.116	1.04	–
VVAVCKPLWMCEAF [Phage-3618]	1.57	0.062	–	–	–
LERACKPMWMCEGF [Phage-3474]	–	–	–	–	Phage binding ELISA signal, Anti-PSMA Fab (PSMA Fab [5]): 1.73; phage binding ELISA signal, Anti-PSMA Fab in the presence of PSMA (PSMA Fab [6]): 0.0863
B4	–	–	0.0697	1.06	–
LAVKCEPAWMCTGF [Phage-3627]	1.55	0.0802	–	–	–
EGTWCRPAWMCDGF [Phage-3473]	–	–	–	–	Phage binding ELISA signal, Anti-PSMA Fab (PSMA Fab [5]): 1.73; phage binding ELISA signal, Anti-PSMA Fab in the presence of PSMA (PSMA Fab [6]): 0.0819
B5	–	–	0.0797	1.06	–
VHPMCTPLWMCVGF [Phage-3628]	1.55	0.0993	–	–	–
IVKFCIPQWMCDGF [Phage-3623]	1.56	0.147	–	–	–
B6	–	–	0.0633	1.08	–
B7	–	–	–	–	Off rate t1/2 (PSMA Fab [7]): 1.9 min
YMMKCIPEWMCTGL [Phage-3622]	1.56	0.0662	–	–	–
B8	–	–	–	–	Off rate t1/2 (PSMA Fab [7]): 1.9 min

Binder	Phage binding ELISA signal, Anti-PSMA Fab (Anti-PSMA Fab [1])	Phage binding ELISA signal, Anti-PSMA Fab with PSMA antigen (Anti-PSMA Fab [2])	Phage binding ELISA signal, Anti-PSMA Fab in presence of PSMA antigen (PSMA Fab (006 PSMA Fab) [3])	Phage binding ELISA signal, Anti-PSMA Fab (PSMA Fab (006 PSMA Fab) [4])	also measured
QEVWCRPIWMCEGF [Phage-3472]	–	–	–	–	Phage binding ELISA signal, Anti-PSMA Fab (PSMA Fab [5]): 1.73; phage binding ELISA signal, Anti-PSMA Fab in the presence of PSMA (PSMA Fab [6]): 0.109
DERMCVPEWMCMGM [Phage-3620]	1.57	0.0714	–	–	–
B9	–	–	–	–	Anti-CD28 Fab signal in the presence of CD28 [8]: 0.07
EDRICEPDWMCAGF [Phage-3475]	–	–	–	–	Phage binding ELISA signal, Anti-PSMA Fab (PSMA Fab [5]): 1.73; phage binding ELISA signal, Anti-PSMA Fab in the presence of PSMA (PSMA Fab [6]): 0.105
ADHMCVPQWMCSGF [Phage-3619]	1.57	0.103	–	–	–
B10	–	–	0.061	1.06	–
B11	–	–	0.0731	1.05	–
B12	–	–	0.0693	1.05	–
DLMMCVPAWMCEGF [Phage-3629]	1.55	0.0929	–	–	–
B13	–	–	0.0974	1.06	–
ELHLCIPSWMCTGL [Phage-3630]	1.54	0.104	–	–	–
B14	–	–	0.0668	1.07	–
B15	–	–	0.131	1.06	–
B16	–	–	0.0581	1.06	–
DDRVCRPDWMCNGF [Phage-3624]	1.56	0.0665	–	–	–
RDWCPRDLWVHCFA (cysteine pairing not given here; also: biotinylated, site not given here, CD28 peptide mask) [Peptide-53]	–	–	–	–	Kd (Ab-15 [9]): 20.3 nM; t1/2 (Ab-15 [9]): 6.2 min; EC50 (Ab-15 [10]): 14.6 nM; Octet signal (Ab-15 [11]): 1.22; t1/2 (Ab-15 [11]): 4.9 min; IC50 (Ab-15 [12]): 170 nM
QDWCPRDLWVHCFA (cysteine pairing not given here; also: biotinylated, site not given here, CD28 peptide mask) [Peptide-56]	–	–	–	–	Kd (Ab-15 [9]): 24.6 nM; t1/2 (Ab-15 [9]): 4.2 min; EC50 (Ab-15 [10]): 25.7 nM; Octet signal (Ab-15 [11]): 1.12; t1/2 (Ab-15 [11]): 3.6 min; IC50 (Ab-15 [12]): 330 nM
EDWCPRDLWVHCFA (cysteine pairing not given here; also: biotinylated, site not given here, CD28 peptide mask) [Peptide-57]	–	–	–	–	Kd (Ab-15 [9]): 23.2 nM; t1/2 (Ab-15 [9]): 3.1 min; EC50 (Ab-15 [10]): 32.8 nM; Octet signal (Ab-15 [11]): 1.02; t1/2 (Ab-15 [11]): 3 min; IC50 (Ab-15 [12]): 300 nM
